# Assay: soluble on expression in E. coli; label from the status in PepcDB or PDB records
row,Sequence,soluble on expression in E. coli
1,GMETTHYSIAQHFSSGDFPAVYACFNDIIEWNIIGNQVVKGKADVIDFCNKMLPEMKGAVLTNDNVIQNENQIVIEGKCRYFDAEGKEAFVSYCDIYRFENDTIKTITSYCI,soluble
2,GMGILSGNPQDEPLHYGEVFSTWTYLSTNNGLINGYRSFINHTGDEDLKNLIDEAIQAMQDENHQLEELLRSNGVGLPPAPPDRPAARLDDIPVGARFNDPEISATISMDVAKGLVTCSQIIGQSIREDVALMFSQFHMAKVQFGGKMLKLNKNKGWLIPPPLHSDRPIKE,soluble
3,GMGSLAEWYQRIPTPDDLTRVESLFANMQAQFPQLKLEFKWNQPMFTDHGTFIMGFNPSKKHLAVAIEPQTMTRFIPQIDKAGYDHSQIIRFPWHKPLDEQLIHDLIAYTIDQKKDATTFWQR,soluble
4,GMLHYTKEDLLELGAEITTREIYQQPDVWREAFEFYQAKREEIAAFLQEIADKHDYIKVILTGAGTSAYVGDTLLPYFKEVYDERKWNFNAIATTDIVANPATYLKKDVATVLVSFARSGNSPESLATVDLAKSLVDELYQVTITCAADGKLALQAHGDDRNLLLLQPAVSNDAGFAMTSSFTSMMLTTLLVFDPTEFAVKSERFEVVSSLARKVLDKAEDVKELVDLDFNRVIYLGAGPFFGLAHEAQLKILELTAGQVATMYESPVGFRHGPKSLINDNTVVLVFGTTTDYTRKYDLDLVREVAGDQIARRVVLLSDQAFGLENVKEVALGCGGVLNDIYRVFPYIVYAQLFALLTSLKVENKPDTPSPTGTVNRVVQGVIIHEYQK,soluble
5,GMLKLCGFAASNYYNKVKLALLEKNVPFEEVLAWIGETDTTATPAGKVPYMITESGSLCESEVINEYLEAAYPQTPLLPRDPMQAGKVREIVTFLELYLELTARELYPEAFFGGKVSDNVKERQLKLLSRYVPAFAKLAKFSPYVAGDTFTLADCAAAVHLPLVSSCTKIIYGKDLLADLPVKEYLKTLSERPSVQKVNADRKANTELMLSRNK,soluble
6,GMMYTNDNRIVMTLDAGGTNFVFSAIQGGKEIADPVVLPACADCLDKCLGNLVEGFKAIQAGLPEAPVAISFAFPGPADYQAGIIGDLPNFPSFRGGVALGPFLEDIFGIPVFINNDGSLFAYGEALTGVLPEINRRLREAGSTKRYKNLLGVTLGTGFGAGVVIDGELLRGDNAAGGYVWCLRNKKYPEYIVEESVSIRAVMRVYAERSGDAGARTPKEIFEIAEGIRPGNREAAIAAFEELGEMAGDALASAITLIDGLIVIGGGLSGASKYILPVLLKEMNAQTGMMDGARFGRLQKEVYDLDEEKSFAGFARGEAVEVLVPGTNRKVGYDPCKRIGVTFSKQGANRSIAMGAYVFALNHLSK,soluble
7,GMNVDFINPFLDSLLNVLKTMANMELKPGKPNLKKDNLAKGDVSGLIGMVGPQTKGSLSITFEETLILEIMNKMLGEKPESIDEEVTDLVGELTNMVTGGAKNLLSDKGYEFDMATPIVVSGKNHTIAHKSDGQKIIMPFSSIYGTAYIEICFEG,soluble
8,GMPTDDIVQLLKGQEEAWNRGDLDAYMQGYWQNEQLMLISNGKFRNGWDETLAAYKKNYPDKESLGELKFTIKEIKMLSNYAAMVVGRWDLKRLKDTPTGVFTLLVEKIDDRWVITMDHSSD,soluble
9,GMRNELPPENAYRILESGPIVLVSTRGADGRANLMTMGFHMMMQHEPPLVGAIIGPWDYSHQALSETGECVLAVPTVDLAETVVDIGNCSGDALDKFGHFGLTPVPAQTVDAPLVRQCWANLECRVVDDGWARRYNLWVLEVQRIWIDTARKETRLIHHQGDGRFSVDGDTLDLGERMTKWRHLMG,soluble
10,GMSEALSDSGLPPVQRVVTGHDAHGRAVFKSEDVTPTRMIPSGDASFLLVWTTATVPADNNDETDGRQREAGLTLDGGSVIRVVDMLPGKESPMHRTNSIDYGIVLEGEIELELDDGAKRTVRQGGIIVQRGTNHLWRNTTDKPCRIAFILIEAPAYLHNGQPLPEDKPDHK,soluble
11,GMSEPEVPFKVVAQFPYKSDYEDDLNFEKDQEIIVTSVEDAEWYFGEYQDSNGDVIEGIFPKSFVAVQG,soluble
12,GMTNVGRPIETHAITVGQGSDARSIAALVRAPAQDERPTCIWLGGYRSDMTGTKALEMDDLAASLGVGAIRFDYSGHGASGGAFRDGTISRWLEEALAVLDHFKPEKAILVGSSMGGWIALRLIQELKARHDNPTQVSGMVLIAPAPDFTSDLIEPLLGDRERAELAENGYFEEVSEYSPEPNIFTRALMEDGRANRVMAGMIDTGCPVHILQGMADPDVPYQHALKLVEHLPADDVVLTLVRDGDHRLSRPQDIDRMRNAIRAMIEPRP,soluble
13,GMYAVPILNVYDFEVKKDKETSYKSATEDYVNKTMGVEQGVLGLFAATDERDKTTSYIVEIYNDYLAFSNHTKNQASKDFKAVIPQIAEGNLNSAEIDVQIAKDKKIEQNDNTFAVYTVIDVKPENDKEFAEIIKNIVETTFNEEGTLLVYLGTDRRNFNKWCLFEVYKDIDSYLNHRSAKYFKDYITQTKDMIAGKKRAELQVLKIENKGGLDYKKLY,soluble
14,GPEQVLDRASMHLANGLLGNPDSAAGLEVLLGGLKLRFVSGSAVAVTGAEGMVTLDGTELPLNKAVRVPPGAVLELGPAMFGIRYYLAVQGGISAQGEAAQGEAIRAGAALTFGRPNNHGSPEVNHPARRALDPERPVVARVSRGPQAQNDDAGTWLRLTSEPWILSPESDRAGARLVGRPLDVTSAPIPQAQPLVSGSVLLPSSGLPVIALAGHPDTSQSPVIAVVRDEDLDVLGQARPGQMVHLLG,not soluble
15,GPGMASSPRPKMDAILTEAIKACFQKSGASVVAIRKYIIHKYPSLELERRGYLLKQALKRELNRGVIKQVKGKGASGSFVVVQKSRKT,soluble
16,GPGSMAALRYLLAPRRALVTPFLRSVTCVSSGGIFSSQRPHTFPVLWHAVRTHSNDSGERSKPLTLHVQLPCGTMRTLTAYEGQTLLDVAMEHGLPIEGACGGSCACSTCHVYLENDEAMELFDEATDEENDMLDMAFFPQSTSRLGCQLTLRQQKHDGLKISLPKATRNMYVDGHTITPHH,not soluble
17,GPGSMADAYRERALPTLSVLERLRCLRREHVPYASHYCEENAYKLVEALYRDFSLPDHAVFAVFISNDCKSTPVWKQRLGNGRCPLMWDYHVITLVNVGAGDEGGMWAFDQDTTLPFPCEGLRYIEESFHPEMQLDDKYRQRFRVVPGRDYLEYFSSDRSHMKDFDAAQPPWPLIRGCRAPSDMRLGLYVDVHQSSSGEDVKKEQGCGKILSIAELISFVSP,soluble
18,GPGSMAGKGNAKVVVTHPKSRKVRQLQRQSRREKRISEQKGKRNAKAALEAARFFWFREQCLALGRTKLAFSREEAQVLTEQYLKRNDEEIVALKSMRNPTAGRIKILEAMKTSEADDFNSSKGIVIPDITNSDNLEILTSIWDGRADTAGVVRRVGLTRTGVSPAAPAVTELEGKLLTIDEVRERSIDFTSRKARKFQTMKRVQSVKKTPTAEDVWLRSKKRGVDLQAKRLRQGREAVLKTRRAN,soluble
19,GPGSMAKYFVPDTTFGLDAECAVCCCLWTDPVEISECQHIFCRGCVEGLETCPVCCGPVTRLDTPGKFILRLLQRTQGSCSACLWKGTYSDFKEKHFECLEADEVQSSDEGKILATTECVAMREYYLEGSGAKPEGSAPSPAAVDSFLVHPVAAVNAGSPHAQPFADATNNGAPVADAHLTCEQRAQWRQSLTSTARDYGMSDREYRELMECFPDFAVPVPDRGMAPELRWRGACRLLRFLNYPNHPDDVKNLFEMADRDALTESVPFHVLCLWLMLNRRNPAQWYHMTAEPYEQFLKVAQLLDVEATGLFQLDQCRILAEQYFERDVCDAEWLRIKRLLRSKDAEIRQSFLSSANRRRVNLDESFALPSAKLPLHDVLCAFTRHVDALKKEQQQQSEAERVQADYVRRIKRIVDFYEPDAVNQLDATLQKFTGEEESLLMTLTAMYGPEPP,soluble
20,GPGSMAVNILKAGFPVSVWNRTASKCDDLVAAGATACATPAELAAASDVVFTNLSDSPDVMEVVFGPNGVAAGICEGAIFVDNSTIKPSVAQEIARRLWKEKKVRALDAPVSGGDIGARNGTLTVMVGGDAAALATVLPVLLAVGKKVTHIGDCGAGQVCKAANQIMVAAQMVALGEILVFCEKCGVSGPTVIEAIKSGSAQCWTLDVKPDRLFAGNRAPGFKAALQSKDMGIVMDTAKEFGVPLPSTAVNTQLFQAMVQNGDGDRDNSAVVSVLERMANVHISEAERE,not soluble
21,GPGSMDAGSDEAVQKKMQEFLSKDAMEELRNIGDRTESRVRHGLLPRDYQQQQHQKDYQTANVTHEEEVNSYIQQRRTWRENVFLLRDFEYWRLRAEYYPYVRRGDEQNDNFFIRGIACHPRLSDYPMCRKPIQDYFVCRDKNKILQLFNLCAPMKEQFCACINEVFVKNHERGDKKFNAQRNEYFEEQRNRRLSKMMAHVEDSMEKRKKLQD,not soluble
22,GPGSMGCLPPDDLGPFVSDHVDVNEAEPVPLSDEDLDLLVRYSLLPTDVVREAWAVFNHYRVVECLRAQQRHYAMTGHLPQKSTVSMSARPFPVAECGGKLFTTPVRAASGDCNAVKEEEKAPVSPRDCVTGENSECRKEEVEVAVLGAEGLRQFFEDTGAPIPTLEVTSFLRRMSQPPVEYLLYQRALEEKLTGAAAAAAPPREESPGVGQRKKSPQTDQSKHNKGQSVGRGQRPNNNTKSLNILVDDHIDLLEEQRGSGGETVTFPLFLYILSNAELGKNFTADVRESEINTLFRTLDVDGDGVVSVDDIQRLLEERCSLGDTLYEDRDIRYLRGMNLTELKAALRECDVDEDGAVRLNDFRSVLSS,soluble
23,GPGSMGLTQDQTQRVKTAFLSYAQGQPKVSEAMMDQLICGAIPGLSWEQLQAKKAVRKVGADGYDLGAFFAMVNSDPAYIAFIQQHFPPAPPEQKEPEVDALALKTAKGF,soluble
24,GPGSMGSGYLKRKRQRQELLNDFYSALSLSSFDTTSGQFSKLVTRTVYHYPSSLPFPVLLDDDFPAEPYRSRNKDIKSAIHWGQRKLLLSEIQLLSMYCRPEISYHIVYAGAAPGTHLAFLDEMFSCRHTWELIDPGQFDRAVLEPRANFRLRNEFFTNATAYGINARRLTEVLPALGFVYQNVAVDSVQVDKKAIHEQLQDIVGTLDVARGTEDIPAMYEAPLSLPKGLELLAQVALERNKPLLFISDIRSGSVALPNFEDHVAENMRAQECWTNILHGEHSMLKFRLPYTSKSTKFGGQGAVRETLLIREDGTVPYLRGDMLLPIWTRPTSTEGRLVVPQGAFQKDYNVAHVEDQFFFFNSSVREQVHFNHLVAHDSELDHHYDAAAEVHCLLTYLRFIRPELKTAKTGELRKEVLRVAHSITAHLGITFEDAIRRRDALMINHAKKSQNKAVEGHKDDAYGDEEAEEQEAKSAASKVRAGSNESAAAADGAATSTTAPVPPSEWEQTTRLMVRLSNYDRNRSVWSRNVREEEHSKTSGFWVTTKMPQA,not soluble
25,GPGSMGTRQSSASAAPAPQASNGALHLNKLNVPTPPRIAATESPFGSNTPLAKTPTPTAATATATAAVSGEHAKRFQEALRVDSVDMALLRELSWQGCPVALRYEAWMFLTGCWTAQAATRQATVLRRRVEYAAYIHSSYGIVDWDAVCAMVDSGVDTAVHRSTLKLLEHTADAPQVAPPSGTSHSLLRVAPLTTGDSTAMAAKEAAAALPPSLSQRPDGRQSASLPLEDVRSRLPQNTSGSDAPQPSQLSPPQSADIRSASPSLGIVPAPSDSSFRASASAGFTDTAGTGPASHPSIFAPPLPGFATLGLSNVVAATAAPPAASGGAGGATGHQLSASTMLGSKELQTLKQIRKDIPRMSGGHCYLRHPRVQGSIERILFIWSLRHPACGYVQGMNDLVVPFMGVVLGYRFCPTHSVTELHAYTEDIFDDLWSVSAVSVTQWINEVEADVYWMTSYLLNTMQDNYTSSHAGITSMMRHLAAVVQVADPPLYHRLVNVLQLHFEQFSFRWMNCLLIRELTETQSLRLLDAYLSDEERRWSVTHVYVCAALLLRWGSQLMAFCEDYISVMKLLQEPPTEQLSLRDMQDVLSEGFVLQNLYEASLKRLSTTAE,not soluble
